In patent publication US11547674B2, “Protein-polymer hybrid biomaterials” (The Regents of the University of California, priority 2018, dated 2023):

Key:
[1] = Circular dichroism thermostability scan of LDH; format: physicochemical; conditions: ˜60° C.
Method: The tertiary structure and thermostability of WT and mutant LDH were obtained following the protocol of Molino et al. Jasco 810 spectropolarimeter equipped with Jasco Peltier temperature controller (Jasco, Easton, Md.) were used to measure the far-UV circular dichroism (CD). LDH samples were prepared at a concentration of 0.06 mg/ml in 50 mM potassium phosphate and 100 mM NaCl. Samples were scanned between 200-260 nm at 25 C at scanning speed of 10 nm/min in 0.1 pathlength quartz cells. Thermal unfolding was monitored at ellipticity at 217 nm from 60° C. to 90° C. at a heating rate of 1° C./min.

[2] = LDH enzyme kinetics (NADH generation, absorbance at 340 nm); format: biochemical, Bacillus stearothermophilus
Method: Enzyme kinetics was measured by absorbance increase at 340 nm in the generation of NADH. All assays were done at 25° C. and in 100 mM triethanolamine hydrochloride buffer following the protocols of Clarke et al. (Clarke, A. R., Wilks, H. M., Barstow, D. A., Atkinson, T., Chia, W. N. & Holbrook, J. J. An Investigation of the Contribution Made by the Carboxylate Group of an Active Site Histidine-Aspartate Couple to Binding and Catalysis in Lactate Dehydrogenase. Biochemistry 27, 1617-1622 (1988)]. Enzyme concentration of 100 nM were mixed with 10 mM NAD+ and 20 mM FBP with varying lactate concentrations for the assay. Km and Kcat were determined using GraphPad Michaelis-Menten curve fit.
Protocols for determining Kcat and Km of LDH were based on previous studies by Clarke et al.^48 Enzyme kinetics were measured by absorbance increases at 340 nm in the generation of NADH. All assays were done at 25° C. and in 100 mM triethanolamine hydrochloride buffer. Enzyme at 100 nM was mixed with 10 mM NAD^+ and 20 mM FBP with varying lactate concentrations. The initial slope of the absorbance vs. time was obtained for a range of lactate concentrations. This initial slope vs. concentration of lactate was plotted in GraphPad Prism and kinetic parameters (Km and kcat) were determined using a non-linear curve fit to the Michaelis-Menten equation.

[3] = 25° C., 100 nM enzyme, 10 mM NAD+, 20 mM FBP, varying lactate

B1: Wt-LDH: thermostable recombinant wild-type lactate dehydrogenase, amino acid sequence from Bacillus stearothermophilus (protein, UniProt P00344 1-317, looked up)
L-lactate dehydrogenase: MKNNGGARVVVIGAGFVGASYVFALMNQGIADEIVLIDANESKAIGDAMDFNHGKVFAPKPVDIWHGDYDDCRDADLVVICAGANQKPGETRLDLVDKNIAIFRSIVESVMASGFQGLFLVATNPVDILTYATWKFSGLPHERVIGSGTILDTARFRFLLGEYFSVAPQNVHAYIIGEHGDTELPVWSQAYIGVMPIRKLVESKGEEAQKDLERIFVNVRDAAYQIIEKKGATYYGIAMGLARVTRAILHNENAILTVSAYLDGLYGERDVYIGVPAVINRNGIREVIEIELNDDEKNRFHHSAATLKSVLARAFTR
For B1, the “denaturation at the NP reaction temperature” value [1] was “does not denature”, the “catalytic activity of LDH” value [2] was “catalytic” and the Kcat [2, 3] was 8.8 s⁻¹. For the same molecule, the Km [2, 3] was 38.5 mM.
